Several values for one entry are separate records, joined by “and”; a condition that tells them apart may be missing. Identical values can stand only once. Like-named read-outs stand apart in the source and are kept apart here.
T1: α2-antiplasmin (Homo sapiens, UniProt P08697)
T1 sequence (P08697 40-491): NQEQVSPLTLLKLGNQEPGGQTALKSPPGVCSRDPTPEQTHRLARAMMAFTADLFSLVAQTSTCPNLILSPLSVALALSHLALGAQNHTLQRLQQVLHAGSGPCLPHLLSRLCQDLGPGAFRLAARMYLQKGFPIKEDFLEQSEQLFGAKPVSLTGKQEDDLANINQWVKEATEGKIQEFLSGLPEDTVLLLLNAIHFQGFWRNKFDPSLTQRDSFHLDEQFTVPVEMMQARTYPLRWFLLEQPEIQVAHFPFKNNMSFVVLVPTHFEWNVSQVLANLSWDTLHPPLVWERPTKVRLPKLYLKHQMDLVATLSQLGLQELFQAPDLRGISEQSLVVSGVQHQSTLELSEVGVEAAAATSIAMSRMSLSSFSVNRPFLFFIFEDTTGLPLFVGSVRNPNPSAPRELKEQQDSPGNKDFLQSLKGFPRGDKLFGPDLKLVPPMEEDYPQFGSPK

T2: α2-macroglobulin (Homo sapiens, UniProt P01023)
T2 sequence (P01023 24-1474): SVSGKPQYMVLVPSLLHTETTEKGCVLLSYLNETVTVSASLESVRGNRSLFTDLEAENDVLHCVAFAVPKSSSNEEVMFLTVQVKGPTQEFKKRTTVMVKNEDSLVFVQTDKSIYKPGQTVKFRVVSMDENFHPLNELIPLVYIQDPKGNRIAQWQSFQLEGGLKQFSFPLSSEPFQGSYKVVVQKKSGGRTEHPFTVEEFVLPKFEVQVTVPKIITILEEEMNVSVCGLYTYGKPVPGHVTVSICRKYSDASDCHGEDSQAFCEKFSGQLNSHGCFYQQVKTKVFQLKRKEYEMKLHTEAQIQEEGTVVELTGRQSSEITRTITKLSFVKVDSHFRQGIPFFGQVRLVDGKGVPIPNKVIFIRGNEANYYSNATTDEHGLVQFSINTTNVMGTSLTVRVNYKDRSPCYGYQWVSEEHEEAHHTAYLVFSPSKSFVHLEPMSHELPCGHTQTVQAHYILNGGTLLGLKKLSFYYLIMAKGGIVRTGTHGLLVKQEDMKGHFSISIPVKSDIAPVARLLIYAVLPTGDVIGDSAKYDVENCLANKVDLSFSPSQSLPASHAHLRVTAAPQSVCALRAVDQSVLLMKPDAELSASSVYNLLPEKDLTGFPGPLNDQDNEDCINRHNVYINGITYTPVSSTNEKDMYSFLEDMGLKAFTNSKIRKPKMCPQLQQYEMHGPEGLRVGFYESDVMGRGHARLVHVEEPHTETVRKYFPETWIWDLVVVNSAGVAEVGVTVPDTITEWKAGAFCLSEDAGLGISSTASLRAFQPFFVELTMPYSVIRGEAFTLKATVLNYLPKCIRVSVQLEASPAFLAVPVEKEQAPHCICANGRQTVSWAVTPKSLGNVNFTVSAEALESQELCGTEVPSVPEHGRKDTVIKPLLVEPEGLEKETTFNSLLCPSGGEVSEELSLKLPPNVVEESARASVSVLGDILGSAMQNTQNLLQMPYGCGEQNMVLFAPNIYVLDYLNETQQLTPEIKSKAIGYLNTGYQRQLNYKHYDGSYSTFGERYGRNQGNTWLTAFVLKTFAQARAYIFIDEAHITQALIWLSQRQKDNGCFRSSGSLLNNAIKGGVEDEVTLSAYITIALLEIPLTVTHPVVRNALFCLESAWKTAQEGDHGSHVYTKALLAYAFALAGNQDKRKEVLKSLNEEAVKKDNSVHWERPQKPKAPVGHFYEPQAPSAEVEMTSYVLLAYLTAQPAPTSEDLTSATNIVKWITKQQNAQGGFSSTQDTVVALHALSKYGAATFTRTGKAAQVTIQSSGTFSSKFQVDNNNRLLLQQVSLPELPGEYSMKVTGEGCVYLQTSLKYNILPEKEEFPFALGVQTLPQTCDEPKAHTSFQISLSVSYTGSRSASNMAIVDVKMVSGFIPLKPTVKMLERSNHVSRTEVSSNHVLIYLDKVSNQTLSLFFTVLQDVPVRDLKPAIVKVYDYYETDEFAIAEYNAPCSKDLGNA

B1: plasmin: two-chain, disulfide-linked serine protease from activation of plasminogen (antibody)
heavy: EPLDDYVNTQGASLFSVTKKQLGAGSIEECAAKCEEDEEFTCRAFQYHSKEQQCVIMAENRKSSIIIRMRDVVLFEKKVYLSECKTGNGKNYRGTMSKTKNGITCQKWSSTSPHRPRFSPATHPSEGLEENYCRNPDNDPQGPWCYTTDPEKRYDYCDILECEEECMHCSGENYDGKISKTMSGLECQAWDSQSPHAHGYIPSKFPNKNLKKNYCRNPDRELRPWCFTTDPNKRWELCDIPRCTTPPPSSGPTYQCLKGTGENYRGNVAVTVSGHTCQHWSAQTPHTHNRTPENFPCKNLDENYCRNPDGKRAPWCHTTNSQVRWEYCKIPSCDSSPVSTEQLAPTAPPELTPVVQDCYHGDGQSYRGTSSTTTTGKKCQSWSSMTPHRHQKTPENYPNAGLTMNYCRNPDADKGPWCFTTDPSVRWEYCNLKKCSGTEASVVAPPPVVLLPDVETPSEEDCMFGNGKGYRGKRATTVTGTPCQDWAAQEPHRHSIFTPETNPRAGLEKNYCRNPDGDVGGPWCYTTNPRKLYDYCDVPQCAAPSFDCGKPQVEPKKCPGR
light: VVGGCVAHPHSWPWQVSLRTRFGMHFCGGTLISPEWVLTAAHCLEKSPRPSSYKVILGAHQEVNLEPHVQEIEVSRLFLEPTRKDIALLKLSSPAVITDKVIPACLPSPNYVVADRTECFITGWGETQGTFGAGLLKEAQLPVIENKVCNRYEFLNGRVQSTELCAGHLAGGTDSCQGDSGGPLVCFEKDKYILQGVTSWGLGCARPNKPGVYVRVSRFVTWIEGVMRNN
B2: mini-plasmin: activated mini-plasminogen (Val443-Asn791), fifth kringle and serine protease domain (K5-SP) (protein)
chain 1: VAPPPVVLLPDVETPSEEDCMFGNGKGYRGKRATTVTGTPCQDWAAQEPHRHSIFTPETNPRAGLEKNYCRNPDGDVGGPWCYTTNPRKLYDYCDVPQCAAPSFDCGKPQVEPKKCPGR
chain 2: B1 light
B3: micro-plasmin: plasmin species lacking all five kringles (protein)
chain: APSFDCGKPQVEPKKCPGRVVGGCVAHPHSWPWQVSLRTRFGMHFCGGTLISPEWVLTAAHCLEKSPRPSSYKVILGAHQEVNLEPHVQEIEVSRLFLEPTRKDIALLKLSSPAVITDKVIPACLPSPNYVVADRTECFITGWGETQGTFGAGLLKEAQLPVIENKVCNRYEFLNGRVQSTELCAGHLAGGTDSCQGDSGGPLVCFEKDKYILQGVTSWGLGCARPNKPGVYVRVSRFVTWIEGVMRNN

Key:
[1] = target: T3, urokinase (Homo sapiens, UniProt P00749); conditions: urokinase activation; Wohl et al. 1980; read-out: Km, literature value; cited from earlier work
[2] = target: T3, urokinase; assay: Kinetics of urokinase activation of plasminogen species (S-2251 coupled assay, method of Wohl et al.); format: biochemical; conditions: 5.8 nM urokinase, 1 mM S-2251, 37° C., pH 7.5
Protocol: Increases in absorbance were monitored at 405 nm.
Activation of delta-plasminogen to delta-plasmin was complete within 3 minutes under these conditions. Very similar results were obtained with tPA and streptokinase.
Data were fit to a Michaelis-Menten kinetic model using Lineweaver-Burk analysis, resulting in the values below: […]

[3] = target: T1, α2-antiplasmin; conditions: literature value, Anonick et al. 1990; cited from earlier work
[4] = Amidolytic activity, steady-state kinetics with substrate S-2251; format: biochemical; conditions: S-2251, PBS buffer, pH 7.4, 25° C.; for kcat: delta-plasmin corrected for percent active sites
[5] = target: T2, α2-macroglobulin; assay: Rate of inhibition by α2-macroglobulin (method of Anonick et al.); format: biochemical; conditions: 22° C. in PBS buffer, pH 7.4
Protocol: The rate of inhibition of delta-plasmin by α2-macroglobulin was measured using the method of Anonick et al. (Anonick, P., et al., Thrombosis Res. 59:449-462 (1990)).
(§1) Literature values are taken from Anonick, et al., Thrombosis Res. 59:449 (1990). All rates were measured according to the methods published in Anonick, et al.

[6] = system: retracted whole human blood clots; assay: In vitro model of catheter-assisted thrombolysis, lysis of retracted whole-blood clots; conditions: single 1-ml dose injected into clot, 60 min at 37° C.; delta-plasmin 0.44 mg, plasmin 1.0 mg (equimolar)
Protocol: FIG. 11 is a graphic representation of delta-plasmin-induced lysis of retracted whole-blood clots. Each clot (0.8×7 cm) was injected with a 1 ml volume of vehicle (acidified saline, pH 3.6), plasmin (1.0 mg/ml), or delta-plasmin (0.44 mg/ml), and clot dissolution was allowed to proceed at 37° C. for 1 hour.
The thrombolytic efficacy of delta-plasmin was tested in an in vitro model of catheter-assisted thrombolysis (Novokhatny, V. et al., J Thromb Haemost., 1(5):1034-41 (2003), incorporated by reference) using the following experimental protocol.
Fresh whole human blood was collected into 20×0.95 cm glass tubes and allowed to clot spontaneously without additives. Tubes were incubated for 20 hr at 37° C. to allow full retraction. Retracted clots were separated from serum using USA Standard testing sieves D16 with 14 mesh, and their weights were determined. […]
Single 1-ml doses of acidified saline, plasmin, or delta-plasmin were injected into the clot using a syringe. […] After the incubation, the clots were placed again on the sieve to remove the liquefied material and the weight of the digested clots was measured. The extent of clot lysis was determined from the difference between the initial clot weight and the weight of residual clot and was expressed as a percent of clot weight reduction.

[7] = target: T1, α2-antiplasmin; assay: Rate of inhibition by α2-antiplasmin (method of Wiman and Collen, S-2251 activity at time points); format: biochemical; conditions: 22° C. in PBS buffer, pH 7.4
Protocol: as §1

inhibition rate by α2-macroglobulin [5]	Molecule	Km [1] [µM]	Km [2] [µM]	kcat [2] [s⁻¹]	inhibition rate by α2-antiplasmin (lit.) [3]	Km [4] [µM]	kcat [4] [s⁻¹]	kcat ([4]; listed as full-length plasmin) [s⁻¹]	clot weight reduction [6] [%]	inhibition rate by α2-antiplasmin [7]
	Plasminogen: human plasminogen, single-chain protein containing 791 amino acid residues	1.7	1.2	0.0383 ± 0.005						
6.5 +/− 0.5 × 10^5 M^−1s^−1	B1				2.5×10^7 M^−1s^−1 and 2.5 +/− 0.5 × 10^7 M^−1s^−1	193	12.7 ± 0.383	12.7 ± 0.383	50	
7.5 +/− 0.3 × 10^5 M^−1s^−1	B2					160	12.8 ± 1.17			2.4×10^5 M^−1s^−1 and 2.4 +/− 0.5 × 10^5 M^−1s^−1
7.8 +/− 0.6 × 10^5 M^−1s^−1	B3					145	13.2 ± 0.4			1.8×10^5 M^−1s^−1 and 3.1×10^5 M^−1s^−1 and 1.8 +/− 0.2 × 10^5 M^−1s^−1

Source: patent US8034913B2, “Recombinantly modified plasmin” (Grifols Therapeutics Inc., priority 2004, dated 2011)
